US20250264476A1, “AMINO ACID-SPECIFIC BINDER AND SELECTIVELY IDENTIFYING AN AMINO ACID” (Government of the United States of America, as represented …, priority 2021, published 2025)

Tested on: biotinylated peptides that vary only by their N-terminal amino acid
Assay: Bio-layer interferometry (BLI) binding of ClpS to biotinylated peptides on streptavidin probe
Conditions: ClpS at 0.312-40 μM in 20 mM HEPES pH 8, 150 mM KCl, 0.1% BSA, 0.05% Tween-20
Description: The initial binding activity of T. elongatus ClpS2 was characterized using bio-laver interferometry (BLI) In BLI, a functionalized fiber-optic probe is placed in a solution of analyte and the accumulation of analyte on the functional group of the probe is measured by changes in reflected light within the probe. A BLI probe functionalized with streptavidin is allowed to accumulate biotinylated peptide. Probes with peptide are then placed in solutions of ClpS of varying concentration and allowed to equilibrate. BLI response is then graphed to concentration to establish a binding curve. Dilutions of T. elongatus ClpS2 were made in 20 mM HEPES pH 8, 150 mM KCl, 0.1% BSA, and 0.05% Tween-20 at concentrations of 0.312, 0.625, 1.25, 2.5, 5, 10, 20, and 40 μM.
With regard to peptides, all peptides are named by indicating the first two residues, with the full sequence available in Table 3. All of the peptides had the same sequence for the C-terminal end of the peptide, XXAVECK (Sequence ID No. 18), where the N-terminal amino acids are varied. The peptides also contained a biotin linked via the lysine side chain on the C-terminal residue. X1G2 peptides started from a lyophilized form. Peptides were resuspended in 1×DPBS and diluted to the appropriate concentration into the experiment buffer. […]

biotinylated peptides that vary only by their N-terminal amino acid, sequence (as listed by the source): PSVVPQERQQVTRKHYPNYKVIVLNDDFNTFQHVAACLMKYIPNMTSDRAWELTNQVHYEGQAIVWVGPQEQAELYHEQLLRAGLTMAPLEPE

B1: T. elongatus ClpS2: wild-type ClpS protein, N-End Rule Pathway adaptor protein, parent of the engineered variants (protein, listed as Thermosynechococcus elongatus)
chain: ASVVPQEGQQVTRKHYPNYKVIVLNDDFNTFRHVAACLMKYIPNMTSDRAWELTNQVHYEGQAIVWVGPQEQAELYHEQLLRAGLTMAPLEPEGS
- binding preference across four peptides that vary only by their N-terminal amino acid: strong preference for binding leucine
